US20060177432A1 (Novartis, published 2006)

What was measured:
[1] = biological target: chymotrypsin; assay: chromogenic substrate hydrolysis at varied substrate and PEBP-H6 concentrations, fitted to the equation for a competitive inhibitor
Method: (§1) Six different serine proteases were diluted in enzyme buffer (67 mM Tris, pH 8.0, 133 mM NaCl, 0.13% PEG-6000) and used in protease activity assays with the following final amounts: thrombin, trypsin and chymotrypsin, 0.005 pmol; t-PA and neuropsin, 0.5 pmol; and pancreatic elastase, 4 pmol. Human α-thrombin was prepared and according to Stone et al. (Stone, S. R. and Hofsteenge, J. (1986) Biochemistry 25, 46224628); all other proteases are commercially available (e.g., Sigma, Fluka). […] The pre-incubation was carried out in a 96-well plate for 30 min at 37° C. After addition of 10 μl chromogenic protease substrate (H-D-Ile-Pro-Arg-para-nitroanilide, Chromogenix, 1.25 mg/ml in H₂O for all proteases other than chymotrypsin; or N-Succinyl-Ala-Ala-Pro-Phe-para-nitroanilide, Sigma, 2.3 mg/ml in H₂O for chymotrypsin), any remaining amidolytic activity was determined by measuring the rate of hydrolysis of the chromogenic substrate at 405 nm over 30 min using a THERMOmax microplate reader (Molecular Devices). […]
(§2) To determine the inhibition constants, the rates for the hydrolysis of the chromogenic substrates were measured as described above at fixed enzyme concentrations and substrate concentrations ranging from 3.5 μM to 216 μM and PEBP-H6 concentrations between 0 and 2.9 μM. […]

[2] = biological target: human α-thrombin (human, UniProt P00734 328-622); assay: as above
Method: as §1, §2

B1: PEBP-H6 (mouse PEBP with a stretch of six histidine residues fused to the carboxy-terminus) (other)
chain: AADISQWAGPLCLQEVDEPPQHALRVDYAGVTVDELGKVLTPTQVMNRPSSISWDGLDPGKLYTLVLTDPDAPSRKDPKFREWHHFLVVNMKGNDISSGTVLSDYVGSGPPSGTGLHRYVWLVYEQEQPLSCDEPILSNKSGDNRGKFKVETFRKKYNLGAPVAGTCYQAEWDDYVPKLYEQLSGKHHHHHH
notes: Expressed in Rat-1 cells and purified on Ni-NTA
Ki [1]: 1800 nM | Ki [2]: 380 nM
